Test results reported in article PMC13397619.

B1: NLV3 TCR beta chain (CDR3β only) (parent)
chain: ASSPTGGSPSPLH
partner: MLVPMVATV
B2: NLV2 TCR alpha chain (CDR3α only) (parent)
chain: AGPMKTSYDKVI

Variants of: B1
Test: T-Switch: Jurkat TCRβ−/− cells expressing a CDR3 saturation-mutagenesis library, stained with two peptide-HLA-A*02:01 tetramers (original and novel peptide) plus anti-CD3, FACS-sorted into four gates, gDNA sequenced
Conditions: with HLA-A*02:01 with peptide … (NLV 3-1, the original bait), tetramers 1 µg/mL, 30 min on ice, DP and SW gates expanded about 10 days between rounds ('two to three rounds of selection' in the Methods), gate SP: higher = more of the variant in the gate that binds the original peptide and not the novel one = retained original binding. Fold enrichment of the CDR3 variant in one FACS gate of a two-tetra, unresolved parent, parent is a CDR3 fragment, scale: fold enrichment, numbering: sequential-on-construct, sequence …

Variant	enrichment
[…] (CDR3 as printed); S10K derived by comparing it with the table's wild-type CDR3 ASSPTGGSPSPLH	0
[…] (CDR3 as printed); S10L derived by comparing it with the table's wild-type CDR3 ASSPTGGSPSPLH	8.65
[…] (CDR3 as printed); S10M derived by comparing it with the table's wild-type CDR3 ASSPTGGSPSPLH	9.51
[…] (CDR3 as printed); S10N derived by comparing it with the table's wild-type CDR3 ASSPTGGSPSPLH	0
[…] (CDR3 as printed); S10P derived by comparing it with the table's wild-type CDR3 ASSPTGGSPSPLH	0
[…] (CDR3 as printed); S10Q derived by comparing it with the table's wild-type CDR3 ASSPTGGSPSPLH	5.52
[…] (CDR3 as printed); S10R derived by comparing it with the table's wild-type CDR3 ASSPTGGSPSPLH	0
[…] (CDR3 as printed); S10T derived by comparing it with the table's wild-type CDR3 ASSPTGGSPSPLH	0
[…] (CDR3 as printed); S10V derived by comparing it with the table's wild-type CDR3 ASSPTGGSPSPLH	0
[…] (CDR3 as printed); S10W derived by comparing it with the table's wild-type CDR3 ASSPTGGSPSPLH	0
[…] (CDR3 as printed); T5A derived by comparing it with the table's wild-type CDR3 ASSPTGGSPSPLH	2.2
[…] (CDR3 as printed); T5C derived by comparing it with the table's wild-type CDR3 ASSPTGGSPSPLH	0
[…] (CDR3 as printed); T5D derived by comparing it with the table's wild-type CDR3 ASSPTGGSPSPLH	0
[…] (CDR3 as printed); T5E derived by comparing it with the table's wild-type CDR3 ASSPTGGSPSPLH	0
[…] (CDR3 as printed); T5F derived by comparing it with the table's wild-type CDR3 ASSPTGGSPSPLH	12.8
[…] (CDR3 as printed); T5G derived by comparing it with the table's wild-type CDR3 ASSPTGGSPSPLH	0
[…] (CDR3 as printed); T5H derived by comparing it with the table's wild-type CDR3 ASSPTGGSPSPLH	1.12
[…] (CDR3 as printed); T5I derived by comparing it with the table's wild-type CDR3 ASSPTGGSPSPLH	11.6
[…] (CDR3 as printed); T5K derived by comparing it with the table's wild-type CDR3 ASSPTGGSPSPLH	0
[…] (CDR3 as printed); T5L derived by comparing it with the table's wild-type CDR3 ASSPTGGSPSPLH	9.97
[…] (CDR3 as printed); T5M derived by comparing it with the table's wild-type CDR3 ASSPTGGSPSPLH	7.93
[…] (CDR3 as printed); T5N derived by comparing it with the table's wild-type CDR3 ASSPTGGSPSPLH	0
[…] (CDR3 as printed); T5P derived by comparing it with the table's wild-type CDR3 ASSPTGGSPSPLH	0
[…] (CDR3 as printed); T5Q derived by comparing it with the table's wild-type CDR3 ASSPTGGSPSPLH	0
[…] (CDR3 as printed); T5R derived by comparing it with the table's wild-type CDR3 ASSPTGGSPSPLH	0
[…] (CDR3 as printed); T5S derived by comparing it with the table's wild-type CDR3 ASSPTGGSPSPLH	0
[…] (CDR3 as printed); T5V derived by comparing it with the table's wild-type CDR3 ASSPTGGSPSPLH	19.2
[…] (CDR3 as printed); T5W derived by comparing it with the table's wild-type CDR3 ASSPTGGSPSPLH	15.1
[…] (CDR3 as printed); T5Y derived by comparing it with the table's wild-type CDR3 ASSPTGGSPSPLH	15.6

Same assay, conditions: with HLA-A*02:01 with peptide … (NLV 3-1, the original bait), tetramers 1 µg/mL, 30 min on ice, DP and SW gates expanded about 10 days between rounds ('two to three rounds of selection' in the Methods), gate SP: higher = more of the variant in the gate that binds the original peptide and not the novel one = retained original binding. Fold enrichment of the CDR3 variant in one FACS gate of a two-tetra, unresolved parent, parent is a CDR3 fragment, zero in all gates, scale: fold enrichment, numbering: …

Variant	enrichment
[…] (CDR3 as printed); G7P derived by comparing it with the table's wild-type CDR3 ASSPTGGSPSPLH	0
[…] (CDR3 as printed); S2L derived by comparing it with the table's wild-type CDR3 ASSPTGGSPSPLH	0

Variants of: B2
Test: as above
Conditions: with both tetramers (double-negative gate, binds neither): HLA-A*02:01 with … and with …, tetramers 1 µg/mL, 30 min on ice, SP, DP and SW gates expanded about 10 days between rounds ('two to three rounds of selection' in the Methods), gate DN: OPPOSITE: higher = more of the variant in the gate that binds neither peptide = LESS binding (or no expression; inferred). Fold enrichment of the CDR3 variant in one FACS gate of a two-tetram, unresolved parent, parent is a CDR3 fragment, scale: fold enrichment, numbering: sequential-on-construct, sequence starts at 1

Variant	enrichment
[…] (CDR3 as printed); I12S derived by comparing it with the table's wild-type CDR3 AGPMKTSYDKVI	0.885
[…] (CDR3 as printed); P3A derived by comparing it with the table's wild-type CDR3 AGPMKTSYDKVI	1.21
[…] (CDR3 as printed); P3K derived by comparing it with the table's wild-type CDR3 AGPMKTSYDKVI	1.01
[…] (CDR3 as printed); M4Y derived by comparing it with the table's wild-type CDR3 AGPMKTSYDKVI	1.15
[…] (CDR3 as printed); Y8G derived by comparing it with the table's wild-type CDR3 AGPMKTSYDKVI	1.22
[…] (CDR3 as printed); P3H derived by comparing it with the table's wild-type CDR3 AGPMKTSYDKVI	0.96

Same assay, conditions: with both tetramers (double-positive gate): HLA-A*02:01 with … and with …, tetramers 1 µg/mL, 30 min on ice, SP, DP and SW gates expanded about 10 days between rounds ('two to three rounds of selection' in the Methods), gate DP: higher = more of the variant in the gate that binds both peptides. Fold enrichment of the CDR3 variant in one FACS gate of a two-tetramer stain. SP/DP/SW gates were expanded and re-sorted bef, unresolved parent, parent is a CDR3 fragment, scale: fold enrichment, numbering: sequential-on-construct, sequence starts at 1

Variant	enrichment
[…] (CDR3 as printed); I12S derived by comparing it with the table's wild-type CDR3 AGPMKTSYDKVI	0
[…] (CDR3 as printed); P3A derived by comparing it with the table's wild-type CDR3 AGPMKTSYDKVI	0
[…] (CDR3 as printed); P3K derived by comparing it with the table's wild-type CDR3 AGPMKTSYDKVI	0
[…] (CDR3 as printed); M4Y derived by comparing it with the table's wild-type CDR3 AGPMKTSYDKVI	0
[…] (CDR3 as printed); Y8G derived by comparing it with the table's wild-type CDR3 AGPMKTSYDKVI	0
[…] (CDR3 as printed); P3H derived by comparing it with the table's wild-type CDR3 AGPMKTSYDKVI	0
